Experimental data as given in the DeepSol protein solubility set.

Assay: soluble on expression in E. coli; label from the status in PepcDB or PDB records

| Sequence | soluble on expression in E. coli |
| --- | --- |
| MITIDGNGAVASVAFRTSEVIAIYPITPSSTMAEQADAWAGNGLKNVWGDTPRVVEMQSEAGAIATVHGALQTGALSTSFTSSQGLLLMIPTLYKLAGELTPFVLHVAARTVATHALSIFGDHSDVMAVRQTGCAMLCAANVQEAQDFALISQIATLKSRVPFIHFFDGFRTSHEINKIVPLADDTILDLMPQVEIDAHRARALNPEHPVIRGTSANPDTYFQSREATNPWYNAVYDHVEQAMNDFSAATGRQYQPFEYYGHPQAERVIILMGSAIGTCEEVVDELLTRGEKVGVLKVRLYRPFSAKHLLQALPGSVRSVAVLDRTKEPGAQAEPLYLDVMTALAEAFNNGERETLPRVIGGRYGLSSKEFGPDCVLAVFAELNAAKPKARFTVGIYDDVTNLSLPLPENTLPNSAKLEALFYGLGSDGSVSATKNNIKIIGNSTPWYAQGYFVYDSKKAGGLTVSHLRVSEQPIRSAYLISQADFVGCHQLQFIDKYQMAERLKPGGIFLLNTPYSADEVWSRLPQEVQAVLNQKKARFYVINAAKIARECGLAARINTVMQMAFFHLTQILPGDSALAELQGAIAKSYSSKGQDLVERNWQALALARESVEEVPLQPVNPHSANRPPVVSDAAPDFVKTVTAAMLAGLGDALPVSALPPDGTWPMGTTRWEKRNIAEEIPIWKEELCTQCNHCVAACPHSAIRAKVVPPEAMENAPASLHSLDVKSRDMRGQKYVLQVAPEDCTGCNLCVEVCPAKDRQNPEIKAINMMSRLEHVEEEKINYDFFLNLPEIDRSKLERIDIRTSQLITPLFEYSGACSGCGETPYIKLLTQLYGDRMLIANATGCSSIYGGNLPSTPYTTDANGRGPAWANSLFEDNAEFGLGFRLTVDQHRVRVLRLLDQFADKIPAELLTALKSDATPEVRREQVAALRQQLNDVAEAHELLRDADALVEKSIWLIGGDGWAYDIGFGGLDHVLSLTENVNILVLDTQCYSNTGGQASKATPLGAVTKFGEHGKRKARKDLGVSMMMYGHVYVAQISLGAQLNQTVKAIQEAEAYPGPSLIIAYSPCEEHGYDLALSHDQMRQLTATGFWPLYRFDPRRADEGKLPLALDSRPPSEAPEETLLHEQRFRRLNSQQPEVAEQLWKDAAADLQKRYDFLAQMAGKAEKSNTD | soluble |
| MVMETESKFHVLAVDDSLFDRKMIERLLQKSSCQVTTVDSGSKALEFLGLRVDDNDPNALSTSPQIHQEVEINLIITDYCMPGMTGYDLLKKVKESAAFRSIPVVIMSSENVPARISRCLEEGAEEFFLKPVKLADLTKLKPHMMKTKLKKESEKPVAIEEIVVSKPEIEEEEEESSVIEILPLHQEIESEQLEPMLSSNKRKAMEEVVSTDRSRPKYNDITTSV | not soluble |
| MADPQGFIKYSRREPAHRPVPLRLMDHSEVYEKAPAGQIEEQAARCMDCGVPFCHEGCPLGNIIPEWNDLVRQGRWKEAYDRLHATNNFPEFTGRLCPAPCEGACVLGINDDSVTIKNVELEIVEKAFREGWVQPVIPSMSTGLSVAVVGSGPAGLAAAQQLTRAGHSVTVFERDDRLGGLMRYGVPEYKMENRWIDRRIEQMEAEGTTFQVGTSPRAAELALFDAILLATGTPVARELSVPGHDLNGIHAAMDYLTAQNRINEGDGEVSPINAKGKKVVIIGGGDTGTDCFGTALRQGAESVTQFDIRPRAPFQRADSTPWPMYPNLFRTATAHEEGEYIITGDESADEIAALGLAERAAGSTLGERKFAVNTVEFHGNNGHVTGLTGNQIRVVNGKREPIEGTEFPFEADLVLVALGFTGAEQGGLAHELGVGFDDRGRILRDSEYRSPTNSRVYIAGDNGRGQSLIVWAIAEGRACAAAIDADLMGETALPVAVAPQDVPLAVLEHHHHHH | not soluble |
| GPLGSETITVPTPIKQIFSDDAFAETIKDNLKKKSVTDAVTQNELNSIDQIIANNSDIKSVQGIQYLPNVTKLFLNGNKLTDIKPLANLKNLGWLFLDENKVKDLSSLKDLKKLKSLSLEHNGISDINGLVHLPQLESLYLGNNKITDITVLSRLTKLDTLSLEDNQISDIVPLAGLTKLQNLYLSKNHISDLRALAGLKNLDVLELFSQECLNKPINHQSNLVVPNTVKNTDGSLVTPEIISDDGDYEKPNVKWHLPEFTNEVSFIFYQPVTIGKAKARFHGRVTQPLKE | soluble |
| MSNTESTPVFDVCLSEKSFPHAQDKAILVHVFLSQTKDIDNLTEFQTLAESAGVELLSTLTTSRNAPHIKYFVGQGKAEEIAQAVENLGATVVLINHQLSPAQTRNLQNLCGCRIVDRSGLILDIFAQRARSHEGKLQVELAQLRHLSTRLVRRLGNQDQQKGGSVGLRGPGETQLETDRRLIKVRIQQLQNQLDKVNKKRHQNRKTRQKADIPTVSLVGYTNAGKSTLFNAITQAGVYAADQLFATLDPTLRRMQIQDVGTTILADTVGFIRFLPHDLVSAFKSTLQETTEANLLLHVVDIADERKNDNITAVNQVLDEIGALTLPSLLIYNKVDKITDITPHIERNQEGKPIAVYLSAHTNQGIDLLYQAIRECLRNELVCQKILLPTTAGQIYAQIRNQNCIKQEHFNQFGDRLIDIEVNAVQWQKWLKQYPALIEYVAFAKWENELEHHHHHH | not soluble |
| MMPPLTKIEVLAKRVMEGAQLKTHKYFRIAVPHAITGQQLIALVLERGAPDDEAEASHLASLLLHHGYMFPVIEHGQPFKDDGTLYRLQRPYFWPSQAELVPDVEYAIYLNKRLLRNEQKHGLEEDEVESFNRLADVLAHMWAFIVQQSELQLKQQKEKKKVDKVVFDSEERAFWKIRKPSRGGPNFLEDPYMKIEKKIRRQNAQGYRCLMDRLRFAIKTKPWLKALKASDTMVTWVDQRAEFDPFLHPPQPSNPWISDEASFWNQPTDTSSAEIPTEKRVKRWGLSVQELVKDPIGRQVLETFLESEFSSENIRFWIAIQDLKYAPNEQIYQKAERIREEFLAQGAPAQVNVDNRTLDQTLECISKAKDASQMRFAFYHSEEHVFTLMAKDSYPRFVRSQIYKAVLTAAQQHGTKRLGWRNFVFNMGTTKKPATSKPAKPQDSIGTGQVLPKQLSSDSLPVRQAHGVKPDPE | not soluble |
| MGSDKIHHHHHHLTDMLAPRVVARLRGVTKSFDGTTVVRNVDLDFRSGEVHVLAGENGAGKSTLTKLLAGIHQPDHGTVEINGQMGPFDVKSSRTAGVTLVHQELLIAPNLTVADNLAMGQENRNRFRGLDRTATLENARAQLAHIGATFPVTMRAEELTVADHQQIEIARALAQKPKILILDEPTSALSSAETERLLRIVDELRRNGTSVIYITHRMEEIEALADIVSIMRDGSLVETMPKAEATPDAIVLRMVGRKIDSLFTAERPEPGRVVLRVEQLTNGKDIGPIDLDVRAGEVVGIGGLIGSGRSEFVRLIFGADRASSGTVSVDGSPVNVTGPGSAVRAGIALLPESRKTQGLVLDQSIAANIVLASLGHISSAGVVTPAAVKRVASKAQKRLGIKSASLGQEVTTLSGGNQQKVLFAKWLETKPKVLILDEPTRGVDVGAKAEIYQIINECAHAGVAVLVISSELPELIGLSSRVHVMREGRLVAEIDAQSLTEEAVMNHAFGIAQATQA | not soluble |
| MYELNICHLYPDLLNLYGDRGNIMALKMRCVWRGINVNVSNISIGDKFDAEAYDIIFLGGGQDYEQEIIQDDLLNQKGEEIRNAVKNDKVFLAICGGYQLLGSYYKTWDGKEIHFLNALDLWTIGGKERMIGNFVFECDFLKNDHYDGKIVGFENHSGRTYLGPGVKPLGKIIKGYGNNGEDGFEGAIYKNVYCSYSHGSLLPKNPALADHLISVALKQKYKDFVSLSGIDDEFENLAHDTTIKRIMG | soluble |
| MIYAGILAGGTGTRMGISNLPKQFLELGDRPILIHTIEKFVLEPSIEKIVVGVHGDWVSHAEDLVDKYLPLYKERIIITKGGADRNTSIKNIIEAIDAYRPLTPEDIVVTHDSVRPFITLRMIQDNIQLAQNHDAVDTVVEAVDTIVESTNGQFITDIPNRAHLYQGQTPQTFRCKDFMDLYGSLSDEEKEILTDACKIFVIKGKDVALAKGEYSNLKITTVTDLKIAKSMIEKD | soluble |
| MGSDKIHHHHHHMKVTFLGHAVVLIEGKKNIIIDPFISGNPVCPVKLEGLPKIDYILVTHGHGDHLGDAVEIAKKNDATVISNYEICHYLGKKGVKTHAMHIGGSYLFDFGRVKMTPAVHGSGILDGDSMIYGGNPSGFLITIEGKKIYHAGDTGLTREMELLAEENVDVAFLPIGGNFVMDVEDAVRAAVMIKPKKVVPMHYGTWELIFADVELFKKKVEEKGVECVILEPGESLEL | not soluble |
| MGPLVKEKYEEVEQIPLKKPHIVSLIGGFGYREPIFRKVLTTAALDSGINYTLISGPSLDPSKFKEIPKNVQILRFVGDTFPYIRSSDAVIAPGGHSTMMEALSFGTPILSFPDEGHSEQENNAAVIEEEGYGRMLSYSTPPEVILECIREVLEDKKYRDKVKRLQRLASELDGLEHHHHHH | soluble |
